Measured values from the nanobody polyreactivity screen of Harvey et al. (2022).

assay: yeast display, Sf9 membrane polyspecificity reagent, FACS + sequencing; frameworks hold sequencing errors
Procedure, shortened: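 Synthetic nanobody libraries on Saccharomyces cerevisiae BJ5465 were galactose-induced for 36–48 hours, stained 1 hour at 4 °C with 10% biotinylated, detergent-solubilized Sf9 membrane reagent and enriched on streptavidin microbeads. FACS then separated cells into low and high (top ~1%) gates by anti-HA (expression) and streptavidin (reagent binding) fluorescence. Genes were colony-PCR amplified, MiSeq 2 × 250 sequenced and CDR-length filtered. A clone's polyreactivity label is that of its gate of origin.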

Sequence | polyreactivity (PSR sort gate)
QVQLVESGGCLVQAGGSLRLSCAASGRMFWSNARGWYRQARGYERELVAAMRNTGSTYYADSVKGRFTISRDNAKNTVYLQMNSLKPEETAVYYCATKPYPYYLYYYWGQGTQVTVSS | high polyreactivity
QVQLVESGGCLVQAGGSLRLSCAASGRTFFGYAMGWYRQAPGKERELVAALTRGGSTNYADSVKGRFTFSRDNAKNTVYLQMNSLKPEDTAVYYCNAERYRSRRYPYRYLYYYWGQGTQVTVSS | high polyreactivity
QVQLVESGGCLVQAGGSLRLSCAASGRTFFNYGMGWYRQAPGKEREFVARISFSGGSTYYADSVKGRFTISRDNAKNTVFLQMNSLIPEDTAVYYCNARVFPVAYRYGYWGQGTQVTVSS | high polyreactivity
QVQLVESGGCLVQAGGSLRLSCAASGRTFRYYAMGWYRQAPGKERELVAAITGGGGSTYYADSVKGRFTISRDNAKNTVYLQMNSLKPEDTAVYYCNKLRYKQWGAQYPMDYWGQGTQVTVSS | high polyreactivity
QVQLVESGGCLVQAGGSLRLSCAASGRTFSRNAMGWYRQAPGKERELVAAISQRGVYTYYADSVKGRFTISRDNAKNTVYLQMNRLKPEDSAVYYCNTRGTYRYDYWGQGTQVTVSS | low polyreactivity
QVQLVESGGCLVQAGGSLRLSCAASGRTFVGYVMGWSRQAPGKERELVAAIRTGGRTHYADSVKGRFTISRDNAKNTVYLQMNSLKPEDTAVYYCNARASYSWHGIRGNYDYWGQGTQVTVSS | high polyreactivity
QVQLVESGGCLVQAGGSLRLSCAASGRTFYGNDMGWYSQAPGTERELVAAISSSGGSTYYADSVKGRGTISRDNGKNTVYLQMKSLKPEDTAVYYCNAYWRGFRLSYYEDSYYWGQGTQVTVSS | high polyreactivity
QVQLVESGGCLVQAGGSLRLSCAASGRTFYINTMGWYRQAPGKEREFVAAIRFSSDSTYYADSVKGRYTISRDNAKNTVYLQMNSLKPEDTAVYYCATRTYAQRYGYWGQGTQVTVSS | high polyreactivity
QVQLVESGGCLVQAGGSLRLSCAASGRTFYTYAIGWYRQAPGQERELVAGIRTGGGSTYYADSVKGRFTISRDNAKNTVYLQMNSLKPEDTAVYYCAADTYDGYDYWGQGTQVTVSS | low polyreactivity
QVQLVESGGCLVQAGGSLRLSCAASGSIFNRYTMGWYRQAPGKEREFVAAISSSGTSTYYADSVKGRFTISRDNAKNTVYLQMNILKPEDTAVYYCAADWTGGFYTWYVIPYDYWGQGTQVTVSS | low polyreactivity
QVQLVESGGCLVQAGGSLRLSCAASGSIFRRNAMGWSRQAPGKERELVAAISRTGGSTYYADSVKGRFTISRDNAKNTVYLQLNSLKPEDTAVYYCNTYSDYADDDYWGQGTQVTVSS | high polyreactivity
QVQLVESGGCLVQAGGSLRLSCAASGSIFSSYQMGWYRQAPGKQRELVEAISSGGSTNYADSVKGRFTISRDNAKNTVYLQMHRLKPEDTAVYYCNVDLFNWGGDSTGYDYWGQGTQVTVSS | low polyreactivity
QVQLVESGGCLVQAGGSLRLSCAASGSIIYCYAMGWYRQAPGKERELVADISRGGITYYADSVKGRFTISRDNAKNTVYLQMNSLKPEDTAVYYCSKTHYGVQRLDSWGQGTQVTVSS | low polyreactivity
QVQLVESGGCLVQAGGSLRLSCAASGSIMYSYAMAWYRQAPGQERELVAAITGDGASTNYADYVKGRFTISRDNAKNTVYLQMNSLKPEDTAVYYCNAGRESDDVYEGSQRIGQFDYWGQGTQVTVSS | low polyreactivity
QVQLVESGGCLVQAGGSLRLSCAASGSTFGVNAMGWYRKAPGKERELVADISVRTDSTYYADSVKGRFTISRDNAKNTVYLQMNSLKAEDTAVYDCNAGLVIEYDYWGQGTQVSVSS | low polyreactivity
QVQLVESGGCLVQAGGSLRLSCAASGSTFLGNAMGWYRQAPGKERELVAGITSGGTTNYADSVKGRFTISRDNAKNTVYLQMNSLKPEDTAVYYCNADVWIGQLFDPGYDFDYWGQGTQVTVSS | low polyreactivity
QVQLVESGGCLVQAGGSLRLSCAASGSTFPIYAMGWYRQAPGKERELVARITWNGGRTYYADSVKGRFTISRDNAKNTVYLQMNSLKPEDTAVYYCNALYYHNLEGNYWGQGTQVTVSS | high polyreactivity
QVQLVESGGCLVQAGGSLRLSCAASGSTFTPYVMGWYRHAPGKERELVAAISKRGGSTYYADSVKGRFTISRDNAKNTVYLQMNRLKPEDTAVYYCAAVQPAWGNGYWGQGTQVTVSS | high polyreactivity
QVQLVESGGCLVQAGGSLRLSCAASGSTFYLNAMGWYRQAPGKEREMVAAITVSGGSTYYADSVKGRFTISRDNAKNTVYLQMNSLKPVDTAVYFCSRELLCPTYQRWYYYWGLGTQVTVSS | low polyreactivity
QVQLVESGGCLVQAGGSLRLSCAASGSTLGYYVMGWYRQAPGKERELFAAITGCGSTDYADSVKGRFTISRDNAKNTVYLQMNSLIPEDTAVYYCAAERTRTGQLFWWGPIYDYWGQGTQVTVSS | low polyreactivity
QVQLVESGGCLVQAGGSLRLSCAASGSTLVIYAMGWYRQAPGKESELVAAINFSDGSTSYADSVKGRFTISRDNAKNTVYLQMNSLKPEDTAVYYCAADWWYGYSNYDYWGQGTQVTVSS | low polyreactivity
QVQLVESGGCLVQAGGSLRLSCAASGYIFYGYAMGWYRQAPGKERELVAAITVRGGSTYYADSVKGRFRISRDNAKNTVYLQMNSLKPQDTAVYYCAAAPQFTFGVGYWGQGTQVTVSS | low polyreactivity

Sequence | polyreactivity (PSR sort gate)
QVQLVESGGCLVQAGGSLRLSCAASGYTIRYYSMGWYRQAPGKERELVAAISYSGGSTYYADSVKGRFTISRDNAKNTVYLQMNIMKPEDTAVYYCDAGFSLYLGFEYWGQGTQVTVSS | high polyreactivity
QVQLVESGGCLVQAGGSLRLSCAATGSTLGSYAMGWYRQAPGKERELVAAITFLGGSTYYADSVKGRFTSSRDNAKNTVYLQMNSLKPEDSAVYYCAARFLRVLFNLVFIYDYWGQGSQVTVSS | high polyreactivity
QVQLVESGGCLVQAGGSLRLSCADSGIIYYYYAMGWYRQAPGKERELVAAISTSGGRTYYADSVKGRFTISRDNAKNTVYLQMNSLKPEDTAVYYCAADYLKGEEDYWGQGTQVSVSS | low polyreactivity
QVQLVESGGCLVQAGGSLRLSCASSGNIFTIYTMGWYRQAPGKERELVASIYRGGTTYYADSVKGRFTISRDNAKNTVYLQMNSLKPEDTAVYYCAVYSPRLRRVHTRGYWGQGTQVTVSS | high polyreactivity
QVQLVESGGCLVQAGGSLRLSCASSGRIFRGYAMGWSRQAPGKERELVAVISYSGTRTYYADSVKGRFTNSRDIAKNTVYLQMNSLKPEETAVYYCNARANGFKDGYWGQGTQVTVSA | high polyreactivity
QVQLVESGGCLVQAGGSLRLSCDASGSTFLTNTMGWYRQPPGKERELVAAISSGDSTYYADSVKGRFTISRDNAKNTVYLQMNSLKPEVTAVYYCARDVGWRNVPRDYWGQGTQVTVSS | low polyreactivity
QVQLVESGGCLVQAGGSLRLSCPASGFTLPANGMGWYRQAPGKERELVAAISFIAGSTYYADSVKGRFTISRDNAKNTVYLQMNSLKPEDTEVYYCATQFPPSTIYDYWGQGSQVTVSS | low polyreactivity
QVQLVESGGCLVQAGGSLRLSGAASGRTQVPYAMGWSRQAHGNERELVASISSGGSTNYADSVKGRFTISRDNAKNTVYLQMNSLKPEDTAVYYCNAEPIGSEVDYWGQGTQVTVAS | low polyreactivity
QVQLVESGGCLVQAGGSLRLSWAASGRTLGGYALGWYRQAPGKERELVAAINRSGTRTYYADSVKGRFTISRDKAKNTVYLQFNSLKPEDTAVYYCAASWYPGSRNYDYGGQGTQVTVSS | high polyreactivity
QVQLVESGGCLVQAGGSLRLTCAASGRIFDLYTMGWYRQATGIERELVAGIYGNGDGTYADSVKGLFTISRDNAKNPVYLQMNSLKPEDTAVYYCAADGIYIYHPYTRFDYCGQGTQVTVSS | low polyreactivity
QVQLVESGGCLVQAGGSLRLTCAASGRIFRGNVMGWYRQAPGKERELVAAISGRGGNTYYADSVKGRFTISRDNAKNTVYLQMNSLKPEDTAVYYCAATRKDDYQYGYWGQGTQVTVSS | high polyreactivity
QVQLVESGGCLVQAGGSLRLTCAASGSTFDRKARGWYRQAPGKERELVAAITKSGGSTYYADSVKGRFTISRDNAKNTVYLQMNSLKPEDTAVYYCKEFYRAVYPYYYWGQGTQVTVSS | low polyreactivity
QVQLVESGGCLVQAGGSLRLTCAASGSTFGYEGRGWYRQAPGKERELVASIDSRCDSTYADSVKGRFTISRDNAKNTVYLQMNSLKPEDTAVYYCAADSWYTWFDSWGQGTQVTVSS | low polyreactivity
QVQLVESGGCLVQAGGSLSLSCAASGSTFPYPYTIGWYRQAPGKERELVAVISRTGGSTFYADSVKGRFTISRDNAKNTVFLQINSLKPEDTAVYYCARQRYEYRTTYYYWGLGTQVTVSS | high polyreactivity
QVQLVESGGCLVQAGGTLRLSCAASGFIFYHNAMGWYRQAPGKERELVAAISGSGGSTHYADSVKGRFTISRDNAKNSVYLQMNSLKPEDTAVYYCARRFWFHYYGYDYWGQGSQVTVSS | high polyreactivity
QVQLVESGGCLVQAGGTLRLSCAASGRTFIVYSMGWYRPAPGKERELVAAITTSVGRTYYADSVKGRFTISRDNAKNTVFLQMISLKPEDTAVYYCADDLLDGYSEYSYWGQGTQVTVSS | low polyreactivity
QVQLVESGGCLVQAGRSHRLSCAASGRIFYGYALGWYRQAPGKERELVAAITRSSSTYYADSVKGRFTISRDNAKNTVYLQMNSLKPEDTAVYYCNAYSWYGYDYWGQGTQVTVSS | high polyreactivity
QVQLVESGGCLVQAGRSLRLRCAASARTIGSNAMGCYRQAPGKARELVDAISSRGGSTYYADSVKGRITISRDNAKNTVYLQMNSLYPEDTAVYYCDSEYYPHTTYLSDNWGQGTQETVSS | high polyreactivity
QVQLVESGGCLVQARGSLRLSCASSGSTFGRNAMGWYRQAPGKERELVASISRRGGSTYYADSVKGRFTISRDNAKNTVYLQMNSLKPEDTAVYYCNRVQFSPVYRFREYDYWGQGTQVTVSS | high polyreactivity
QVQLVESGGDLVQAGGSLRLSCAASGITFYVNTMGSYRPAPGKERELVAAIDWTDGGTYYADSVKGRFTISRDNAKNTVYLQMNSLKPEDTAVYYCAREYYWDIKGLYGYLAYDLDYWGQGSQVTVSS | low polyreactivity
QVQLVESGGGFDQAGGSLRLSCAASGSIFSGYAMGWYRQAPGKETELVAAINWSGGRTYYADSVKGRFTISRDNEKNTVYLQMKSLKPEDTAVYYCAAAGARSIYRMDYWGQGTQVTVSS | high polyreactivity
